{"source": "paper PMC7337494", "about": "(The Journal of Cell Biology, 2020)", "target": "the molecule itself", "assay": "AUC", "data": [{"protein": "217-MGD (extended OPA1-MGD, residues 217–580 and 938–960 connected by the artificial linker) (domain or fragment) not shown", "values": [{"measurement": "stoichiometry N", "value": 2}]}]}
